Reference: article PMC7430568

Experiments:
[1] = target: SARS-CoV-2 Spike* (mutant, pre-fusion stabilised Spike protein ectodomain) (SARS-CoV-2, Wuhan-Hu-1); experiment: SPR
[2] = target: SARS-CoV-2 Spike* (mutant, pre-fusion stabilised Spike protein ectodomain) (SARS-CoV-2, Wuhan-Hu-1)

Substance	kd2 (slow phase of dissociation) [1]	IC50 [2]	Kd [1]
Nb6-tri (trivalent Nb6 with two 20 amino acid linkers) (VHH)	< 1e-06 s⁻¹	1.5 nM	–
mNb6-tri (trivalent mNb6) (VHH)	–	0.4 nM	< 0.001 nM
